Results published in the Immune Epitope Database (IEDB).

Key:
HLA-A*02:01 [1] = experiment: IEDB peptide-MHC binding, purified MHC/competitive/fluorescence; filed as Kd, often an IC50 or EC50 that approximates it; ≥ and ≤ were set here for values at or beyond the usual limits of such assays; conditions: source organism: Encephalitozoon cuniculi GB-M1
HLA-A*02:03 = experiment: as above; conditions: source organism: Encephalitozoon cuniculi GB-M1
HLA-A*02:06 [2] = experiment: as above; conditions: source organism: Encephalitozoon cuniculi GB-M1
HLA-A*02:11 [3] = experiment: as above; conditions: source organism: Encephalitozoon cuniculi GB-M1
HLA-A*02:12 [4] = experiment: as above; conditions: source organism: Encephalitozoon cuniculi GB-M1
HLA-A*02:16 [5] = experiment: as above; conditions: source organism: Encephalitozoon cuniculi GB-M1
HLA-A*02:19 [6] = experiment: as above; conditions: source organism: Encephalitozoon cuniculi GB-M1
HLA-A*02:50 = experiment: as above
HLA-A*69:01 [7] = experiment: as above; conditions: source organism: Encephalitozoon cuniculi GB-M1
HLA-A*02:01 [8] = experiment: IEDB peptide-MHC binding, purified MHC/direct/fluorescence; filed as Kd, often an IC50 or EC50 that approximates it; ≥ and ≤ were set here for values at or beyond the usual limits of such assays
HLA-A*02:06 [9] = experiment: as above
HLA-A*02:11 [10] = experiment: as above
HLA-A*02:12 [11] = experiment: as above
HLA-A*02:16 [12] = experiment: as above
HLA-A*02:19 [13] = experiment: as above
HLA-A*03:01 = experiment: as above
HLA-A*24:03 = experiment: as above; conditions: source organism: Entamoeba histolytica HM-1:IMSS
HLA-A*26:01 = experiment: as above; conditions: source organism: Entamoeba histolytica HM-1:IMSS
HLA-A*29:02 = experiment: as above; conditions: source organism: Entamoeba histolytica HM-1:IMSS
HLA-A*69:01 [14] = experiment: as above; conditions: source organism: Entamoeba histolytica HM-1:IMSS
HLA-B*15:17 = experiment: as above; conditions: source organism: Entamoeba histolytica HM-1:IMSS
HLA-B*27:03 = experiment: as above; conditions: source organism: Entamoeba histolytica HM-1:IMSS
HLA-B*39:01 = experiment: as above; conditions: source organism: Entamoeba histolytica HM-1:IMSS
HLA-B*46:01 = experiment: as above
HLA-B*51:01 = experiment: as above; conditions: source organism: Entamoeba histolytica HM-1:IMSS
HLA-B*57:01 = experiment: as above; conditions: source organism: Entamoeba histolytica HM-1:IMSS
HLA-B*15:02 = experiment: IEDB peptide-MHC binding, purified MHC/competitive/fluorescence; filed as Kd, often an IC50 or EC50 that approximates it; ≥ and ≤ were set here for values at or beyond the usual limits of such assays
HLA-C*05:01 = experiment: IEDB peptide-MHC binding, purified MHC/direct/fluorescence; filed as Kd, often an IC50 or EC50 that approximates it; ≥ and ≤ were set here for values at or beyond the usual limits of such assays; conditions: source organism: Bacillus anthracis str. A2012
HLA-C*07:02 = experiment: as above; conditions: source organism: Bacillus anthracis str. A2012
HLA-C*15:02 = experiment: as above; conditions: source organism: Bacillus anthracis str. A2012
HLA-B*15:42 = experiment: IEDB peptide-MHC binding, purified MHC/competitive/fluorescence; filed as Kd, often an IC50 or EC50 that approximates it; ≥ and ≤ were set here for values at or beyond the usual limits of such assays; conditions: source organism: Bacillus anthracis str. A2012
HLA-B*27:20 = experiment: as above; conditions: source organism: Bacillus anthracis str. A2012
HLA-B*45:06 = experiment: as above; conditions: source organism: Bacillus anthracis str. A2012
HLA-B*83:01 = experiment: as above; conditions: source organism: Bacillus anthracis str. A2012
HLA-C*14:02 = experiment: as above; conditions: source organism: Bacillus anthracis str. A2012
HLA-B*27:05 [15] = experiment: IEDB peptide-MHC binding, purified MHC/direct/fluorescence; filed as Kd, often an IC50 or EC50 that approximates it; ≥ and ≤ were set here for values at or beyond the usual limits of such assays
HLA-B*48:01 = experiment: as above; conditions: source organism: Giardia lamblia ATCC 50803
HLA-B*73:01 = experiment: as above; conditions: source organism: Giardia lamblia ATCC 50803
HLA-B*07:02 = experiment: as above; conditions: source organism: Salmonella enterica
HLA-B*08:01 = experiment: as above; conditions: source organism: Salmonella enterica subsp. enterica serovar Typhimurium str. LT2
HLA-B*15:01 = experiment: as above; conditions: source organism: Salmonella enterica
HLA-B*40:01 = experiment: as above; conditions: source organism: Salmonella enterica
HLA-B*44:02 = experiment: as above; conditions: source organism: Salmonella enterica
HLA-B*58:01 = experiment: as above; conditions: source organism: Salmonella enterica
HLA-B*27:05 [16] = experiment: IEDB peptide-MHC binding, purified MHC/competitive/fluorescence; ≥ and ≤ were set here for values at or beyond the usual limits of such assays; conditions: source organism: hepatitis C virus genotype 1a
HLA-B*35:01 = experiment: IEDB peptide-MHC binding, cellular MHC/competitive/fluorescence; ≥ and ≤ were set here for values at or beyond the usual limits of such assays; conditions: source organism: Mycobacterium tuberculosis H37Rv
[17] = source organism: Entamoeba histolytica HM-1:IMSS
[18] = source organism: Salmonella enterica
[19] = source organism: Salmonella enterica subsp. enterica serovar Typhimurium str. LT2

## GVYGGLCLA
HLA-A*02:01 [1]
  Kd: 0.0025 µM
HLA-A*02:03
  Kd: 0.0016 µM
HLA-A*02:06 [2]
  Kd: ≤ 0.001 µM
HLA-A*02:11 [3]
  Kd: ≤ 0.001 µM
HLA-A*02:12 [4]
  Kd: 0.122 µM
HLA-A*02:16 [5]
  Kd: ≤ 0.001 µM
HLA-A*02:19 [6]
  Kd: 0.485 µM
HLA-A*02:50; source organism: Encephalitozoon cuniculi GB-M1
  Kd: 0.0003 µM
HLA-A*69:01 [7]
  Kd: 0.423 µM

## RQRHYFDSA
HLA-A*02:01 [8]; [17]
  Kd: 7 µM
HLA-A*02:06 [9]; [17]
  Kd: 0.004 µM
HLA-A*02:11 [10]; [17]
  Kd: ≥ 20 µM
HLA-A*02:12 [11]; [17]
  Kd: ≥ 20 µM
HLA-A*02:16 [12]; [17]
  Kd: ≥ 20 µM
HLA-A*02:19 [13]; [17]
  Kd: ≥ 20 µM
HLA-A*03:01; [17]
  Kd: ≥ 20 µM
HLA-A*24:03
  Kd: ≥ 20 µM
HLA-A*26:01
  Kd: ≥ 20 µM
HLA-A*29:02
  Kd: ≥ 20 µM
HLA-A*69:01 [14]
  Kd: ≥ 20 µM
HLA-B*15:17
  Kd: ≥ 20 µM
HLA-B*27:03
  Kd: ≥ 20 µM
HLA-B*39:01
  Kd: ≥ 20 µM
HLA-B*46:01; [17]
  Kd: ≥ 20 µM
HLA-B*51:01
  Kd: ≥ 20 µM
HLA-B*57:01
  Kd: ≥ 20 µM

## GMRVLGTNY
HLA-B*15:02; source organism: Vibrio cholerae 2740-80
  Kd: 0.229 µM

## WMYYPRSPV
HLA-C*05:01
  Kd: ≥ 20 µM
HLA-C*07:02
  Kd: 0.667 µM
HLA-C*15:02
  Kd: ≥ 20 µM
HLA-B*15:02; source organism: Bacillus anthracis str. A2012
  Kd: 0.391 µM
HLA-B*15:42
  Kd: ≥ 5 µM
HLA-B*27:20
  Kd: 0.0002 µM
HLA-B*45:06
  Kd: ≥ 5 µM
HLA-B*83:01
  Kd: ≥ 5 µM
HLA-C*14:02
  Kd: 0.0068 µM

## YRYKMPVME
HLA-B*27:05 [15]; source organism: Giardia lamblia ATCC 50803
  Kd: 0.124 µM
HLA-B*48:01
  Kd: ≥ 20 µM
HLA-B*73:01
  Kd: 1.62 µM

## WTLETLPRV
HLA-A*02:01 [8]; [18]
  Kd: 0.0287 µM
HLA-A*02:06 [9]; [19]
  Kd: ≤ 0.001 µM
HLA-A*02:11 [10]; [19]
  Kd: ≤ 0.001 µM
HLA-A*02:12 [11]; [19]
  Kd: ≤ 0.001 µM
HLA-A*02:16 [12]; [19]
  Kd: ≤ 0.001 µM
HLA-A*02:19 [13]; [19]
  Kd: 0.004 µM
HLA-A*03:01; [18]
  Kd: ≥ 20 µM
HLA-B*07:02
  Kd: ≥ 20 µM
HLA-B*08:01
  Kd: ≥ 20 µM
HLA-B*15:01
  Kd: ≥ 20 µM
HLA-B*27:05 [15]; [18]
  Kd: ≥ 20 µM
HLA-B*40:01
  Kd: ≥ 20 µM
HLA-B*44:02
  Kd: ≥ 20 µM
HLA-B*46:01; [18]
  Kd: ≥ 20 µM
HLA-B*58:01
  Kd: ≥ 20 µM
HLA-A*02:50; source organism: Salmonella enterica subsp. enterica serovar Typhi
  Kd: 0.0094 µM

## GRAVICGKY
HLA-B*27:05 [16]
  IC50: 0.032 µM

## LPAKFLEGF
HLA-B*35:01
  IC50: 0.7 µM
